Reference: patent publication US20250032632A1 (published 2025)
Blank lines part the entries; values can stand above or below the binder they belong to.

Legend:
[1] = target: T1, rat cMET-Fc (rat, UniProt P97523 25-935); assay: SPR, rMET-Fc
T1 construct: Construct named only as rMET-Fc; also called rMET-Fc; not shown: Fc part

[2] = target: T2, human cMET-Fc fusion protein (extracellular domain of human cMET fused to human Fc) (human, UniProt P08581 25-932); assay: SPR, hMET-Fc
T2 construct: Mature cMET is cleaved into alpha and beta subunits; also called hMET-Fc; hMet-Fc

[3] = target: T3, rat cMET (ELISA antigen) (rat, UniProt P97523 25-935, limits assumed); assay: ELISA on rat cMET, relative to parental P3D12
T3 construct: also called rMET

[4] = target: T4, human cMET (ELISA antigen) (human, UniProt P08581 25-932, limits assumed); assay: ELISA on human cMET, relative to parental P3D12
T4 construct: also called hMET

[5] = target: T2, human cMET-Fc fusion protein …; assay: SPR with hMet-Fc

T4 sequence (P08581 25-932 limits assumed): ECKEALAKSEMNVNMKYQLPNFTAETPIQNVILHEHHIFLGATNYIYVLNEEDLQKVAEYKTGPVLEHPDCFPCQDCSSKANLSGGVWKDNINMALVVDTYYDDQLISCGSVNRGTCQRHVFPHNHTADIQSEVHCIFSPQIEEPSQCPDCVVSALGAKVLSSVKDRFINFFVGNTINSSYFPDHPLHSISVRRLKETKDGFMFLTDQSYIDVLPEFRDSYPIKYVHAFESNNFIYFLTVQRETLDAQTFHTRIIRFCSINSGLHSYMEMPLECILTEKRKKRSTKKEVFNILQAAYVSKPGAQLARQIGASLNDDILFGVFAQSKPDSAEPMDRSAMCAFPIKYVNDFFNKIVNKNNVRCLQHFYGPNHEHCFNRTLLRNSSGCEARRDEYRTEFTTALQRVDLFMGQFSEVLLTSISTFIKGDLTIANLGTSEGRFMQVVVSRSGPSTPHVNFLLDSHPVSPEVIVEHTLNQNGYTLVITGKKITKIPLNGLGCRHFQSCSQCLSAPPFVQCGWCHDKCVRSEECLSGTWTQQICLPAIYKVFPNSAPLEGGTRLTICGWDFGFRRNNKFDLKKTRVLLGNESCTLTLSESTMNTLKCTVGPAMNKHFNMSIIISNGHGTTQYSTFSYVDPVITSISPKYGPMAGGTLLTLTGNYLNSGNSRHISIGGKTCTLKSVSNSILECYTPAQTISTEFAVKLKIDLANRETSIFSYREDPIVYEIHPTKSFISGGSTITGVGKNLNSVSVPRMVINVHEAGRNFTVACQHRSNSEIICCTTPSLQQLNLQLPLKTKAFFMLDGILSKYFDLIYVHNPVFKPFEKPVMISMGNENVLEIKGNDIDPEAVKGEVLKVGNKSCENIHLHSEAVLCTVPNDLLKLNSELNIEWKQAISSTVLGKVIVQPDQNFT
T2 sequence (P08581 25-932): as the sequence (P08581 25-932 limits assumed) above
T3 sequence (P97523 25-935 limits assumed): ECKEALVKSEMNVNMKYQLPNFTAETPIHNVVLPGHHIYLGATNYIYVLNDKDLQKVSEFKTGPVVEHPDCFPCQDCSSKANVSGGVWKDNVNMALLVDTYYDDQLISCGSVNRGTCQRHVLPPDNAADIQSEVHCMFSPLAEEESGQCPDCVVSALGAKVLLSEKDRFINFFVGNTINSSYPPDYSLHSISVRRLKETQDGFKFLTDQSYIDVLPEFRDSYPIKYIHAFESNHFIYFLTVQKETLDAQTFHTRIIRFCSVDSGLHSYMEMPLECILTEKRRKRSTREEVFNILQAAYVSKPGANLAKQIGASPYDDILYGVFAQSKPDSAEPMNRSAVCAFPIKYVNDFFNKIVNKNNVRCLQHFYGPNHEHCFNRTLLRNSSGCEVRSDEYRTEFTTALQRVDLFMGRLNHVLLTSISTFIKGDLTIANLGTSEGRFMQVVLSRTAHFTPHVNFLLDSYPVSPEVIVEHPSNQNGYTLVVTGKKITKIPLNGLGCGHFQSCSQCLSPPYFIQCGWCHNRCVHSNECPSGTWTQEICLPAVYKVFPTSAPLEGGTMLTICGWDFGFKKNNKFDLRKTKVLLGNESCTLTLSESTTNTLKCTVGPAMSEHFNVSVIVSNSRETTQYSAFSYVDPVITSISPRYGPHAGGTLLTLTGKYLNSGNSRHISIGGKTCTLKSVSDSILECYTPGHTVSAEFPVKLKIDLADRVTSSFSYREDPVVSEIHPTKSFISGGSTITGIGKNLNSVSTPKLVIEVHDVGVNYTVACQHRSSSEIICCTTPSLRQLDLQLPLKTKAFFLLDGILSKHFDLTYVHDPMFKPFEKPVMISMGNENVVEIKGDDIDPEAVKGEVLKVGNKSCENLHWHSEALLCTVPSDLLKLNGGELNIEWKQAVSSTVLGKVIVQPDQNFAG
T1 sequence (P97523 25-935 limits assumed): as above

B1: Chimeric P3D12 (antibody, V domains shown)
VH: QVQLQQSGAELAKPGASVKMSCRASGYTFTSYWMHWVKQRPGQGLDWIGYIKPSTDNTEYNQKFKDKATLTADKSSSTAYMQLSSLTSEDSAVYYCARSYGNYPLMDYWGQGTSVTVSS
VL: QIVLTQSPAIMSASPGEKVTLTCSASSSVTSNYLYWYQQKPGSSPKLWIYSTSNLASGVPARFSGSGSGTSYSLTISSMEAEDAASYFCHQWSSYPPTFGSGTKLEIKR
notes: Mouse P3D12 variable regions with human constant regions
Kd [1]: 30 nM
Kd [2]: 0.7 nM

B2: G2ckc (humanized P3D12, VH-cdr + VL-cdr) (antibody, V domains shown)
VH: QVQLVQSGAEVKKPGASVKVSCKASGYTFTSYWMHWVKQAPGQGLDWIGYIKPSTDNTEYNQKFKDKATLTADKSTSTAYMELSSLRSEDTAVYYCARSYGNYPLMDYWGQGTTVTVSS
VL: QIVLTQSPATLSLSPGERATLSCSASSSVTSNYLYWYQQKPGSSPRLLIYSTSNLASGVPARFSGSGSGTSYTLTISRLEPEDFASYFCHQWSSYPPTFGSGTKLEIKR
notes: Humanized and isotype switched version of P3D12
ELISA rMET vs parental [3]: 2 fold vs parental
ELISA hMET vs parental [4]: 1 fold vs parental
Kd [1]: 31 nM
Kd [2]: 0.9 nM

B3: G2fkf (humanized P3D12, VH-fra + VL-fra) (antibody, V domains shown)
VH: QVQLQQSGAEVKKPGASVKVSCKASGYTFTSYWMHWVKQRPGQGLDWIGYIKPSTDNTEYNQKFKDRVTLTADKSTSTAYMQLSNLISEDTAVYYCARSYGNYPLMDYWGQGTSVTVSS
VL: QIVLTQSPAILSLSPGERATLSCSASSSVTSNYLYWYQQKPGSSPKLLIYSTSNLASGVPARFSGSGSGTSYTLTISSLEAEDAASYFCHQWSSYPPTFGSGTKLEIKR
notes: as for B2
ELISA rMET vs parental [3]: 1.4 fold vs parental
ELISA hMET vs parental [4]: 1.7 fold vs parental
Kd [1]: 30 nM
Kd [2]: 0.4 nM

B5: G2akf (humanized P3D12, VH-abb/sdr + VL-fra) (antibody, V domains shown)
VH: QVQLVQSGAEVKKPGASVKVSCKASGYTFTSYWMHWVKQAPGQGLDWMGYIKPSTDNTEYAQKFQGRVTLTADKSTSTAYMELSSLRSEDTAVYYCARSYGNYPLMDYWGQGTTVTVSS
VL: QIVLTQSPAILSLSPGERATLSCSASSSVTSNYLYWYQQKPGSSPKLLIYSTSNLASGVPARFSGSGSGTSYTLTISSLEAEDAASYFCHQWSSYPPTFGSGTKLEIKR
notes: as for B2
ELISA rMET vs parental [3]: 0.5 fold vs parental
ELISA hMET vs parental [4]: 1 fold vs parental
Kd [1]: 23 nM
Kd [2]: 0.6 nM

B6: G2vkf (humanized P3D12, VH-ven + VL-fra) (antibody, V domains shown)
VH: QVQLVQSGAEVAKPGASVKMSCKASGYTFTSYWMHWVKQAPGQGLDWIGYIKPSTDNTEYNQKFKDKATLTADKSTSTAYMQLSSLRSEDTAVYYCARSYGNYPLMDYWGQGTTVTVSS
VL: QIVLTQSPAILSLSPGERATLSCSASSSVTSNYLYWYQQKPGSSPKLLIYSTSNLASGVPARFSGSGSGTSYTLTISSLEAEDAASYFCHQWSSYPPTFGSGTKLEIKR
notes: as for B2
ELISA rMET vs parental [3]: 1 fold vs parental
ELISA hMET vs parental [4]: 1.1 fold vs parental
Kd [1]: 8 nM
Kd [2]: 0.3 nM

B8: G2vkc (humanized P3D12, VH-ven + VL-cdr) (antibody, V domains shown)
VH: QVQLVQSGAEVAKPGASVKMSCKASGYTFTSYWMHWVKQAPGQGLDWIGYIKPSTDNTEYNQKFKDKATLTADKSTSTAYMQLSSLRSEDTAVYYCARSYGNYPLMDYWGQGTTVTVSS
VL: QIVLTQSPATLSLSPGERATLSCSASSSVTSNYLYWYQQKPGSSPRLLIYSTSNLASGVPARFSGSGSGTSYTLTISRLEPEDFASYFCHQWSSYPPTFGSGTKLEIKR
notes: as for B2
ELISA rMET vs parental [3]: 1.9 fold vs parental
ELISA hMET vs parental [4]: 1.1 fold vs parental

B11: G2fkc (humanized P3D12, VH-fra + VL-cdr) (antibody, V domains shown)
VH: QVQLQQSGAEVKKPGASVKVSCKASGYTFTSYWMHWVKQRPGQGLDWIGYIKPSTDNTEYNQKFKDRVTLTADKSTSTAYMQLSNLISEDTAVYYCARSYGNYPLMDYWGQGTSVTVSS
VL: QIVLTQSPATLSLSPGERATLSCSASSSVTSNYLYWYQQKPGSSPRLLIYSTSNLASGVPARFSGSGSGTSYTLTISRLEPEDFASYFCHQWSSYPPTFGSGTKLEIKR
notes: as for B2
ELISA rMET vs parental [3]: 2.3 fold vs parental
ELISA hMET vs parental [4]: 1.7 fold vs parental

B12: G2ckv (humanized P3D12, VH-cdr + VL-ven) (antibody, V domains shown)
VH: QVQLVQSGAEVKKPGASVKVSCKASGYTFTSYWMHWVKQAPGQGLDWIGYIKPSTDNTEYNQKFKDKATLTADKSTSTAYMELSSLRSEDTAVYYCARSYGNYPLMDYWGQGTTVTVSS
VL: QIVLTQSPATMSASPGERVTLSCSASSSVTSNYLYWYQQKPGSSPRLWIYSTSNLASGVPARFSGSGSGTSYTLTISRMEPEDAASYFCHQWSSYPPTFGSGTKLEIKR
notes: as for B2
ELISA rMET vs parental [3]: 1 fold vs parental
ELISA hMET vs parental [4]: 1.1 fold vs parental

B15: G2fka (humanized P3D12, VH-fra + VL-abb/sdr) (antibody, V domains shown)
VH: QVQLQQSGAEVKKPGASVKVSCKASGYTFTSYWMHWVKQRPGQGLDWIGYIKPSTDNTEYNQKFKDRVTLTADKSTSTAYMQLSNLISEDTAVYYCARSYGNYPLMDYWGQGTSVTVSS
VL: QIVLTQSPATLSLSPGERATLSCRASQSVTSNYLYWYQQKPGSSPRLLIYSTSNLASGVPARFSGSGSGTDYTLTISRLEPEDFASYFCHQWSSYPPTFGSGTKLEIKR
notes: as for B2
ELISA rMET vs parental [3]: 3.8 fold vs parental
ELISA hMET vs parental [4]: 1.8 fold vs parental

B17: ABF46 (antibody, V domains shown)
VH: EVKLVESGGGLVQPGGSLRLSCATSGFTFTDYYMSWVRQPPGKALEWLGFIRNKANGYTTEYSASVKGRFTISRDNSQSILYLQMDTLRAEDSATYYCARDNWFAYWGQGTLVTVSA
VL: DILMTQSPSSLTVSAGEKVTMSCKSSQSLLASGNQNNYLAWHQQKPGRSPKMLIIWASTRVSGVPDRFIGSGSGTDFTLTINSVQAEDLAVYYCQQSYSAPLTFGAGTKLELK
Kd [5]: 0.7 nM

The next lines start with the values.

ELISA rMET vs parental [3]: 1.2 fold vs parental
ELISA hMET vs parental [4]: 1.7 fold vs parental
B4: G2fkv (humanized P3D12, VH-fra + VL-ven) (antibody, V domains shown)
VH: QVQLQQSGAEVKKPGASVKVSCKASGYTFTSYWMHWVKQRPGQGLDWIGYIKPSTDNTEYNQKFKDRVTLTADKSTSTAYMQLSNLISEDTAVYYCARSYGNYPLMDYWGQGTSVTVSS
VL: QIVLTQSPATMSASPGERVTLSCSASSSVTSNYLYWYQQKPGSSPRLWIYSTSNLASGVPARFSGSGSGTSYTLTISRMEPEDAASYFCHQWSSYPPTFGSGTKLEIKR
notes: as for B2

ELISA rMET vs parental [3]: 1.3 fold vs parental
ELISA hMET vs parental [4]: 1.6 fold vs parental
B7: G2akv (humanized P3D12, VH-abb/sdr + VL-ven) (antibody, V domains shown)
VH: QVQLVQSGAEVKKPGASVKVSCKASGYTFTSYWMHWVKQAPGQGLDWMGYIKPSTDNTEYAQKFQGRVTLTADKSTSTAYMELSSLRSEDTAVYYCARSYGNYPLMDYWGQGTTVTVSS
VL: QIVLTQSPATMSASPGERVTLSCSASSSVTSNYLYWYQQKPGSSPRLWIYSTSNLASGVPARFSGSGSGTSYTLTISRMEPEDAASYFCHQWSSYPPTFGSGTKLEIKR
notes: as for B2

ELISA rMET vs parental [3]: 1.6 fold vs parental
ELISA hMET vs parental [4]: 1.6 fold vs parental
B9: G2vkv (humanized P3D12, VH-ven + VL-ven) (antibody, V domains shown)
VH: QVQLVQSGAEVAKPGASVKMSCKASGYTFTSYWMHWVKQAPGQGLDWIGYIKPSTDNTEYNQKFKDKATLTADKSTSTAYMQLSSLRSEDTAVYYCARSYGNYPLMDYWGQGTTVTVSS
VL: QIVLTQSPATMSASPGERVTLSCSASSSVTSNYLYWYQQKPGSSPRLWIYSTSNLASGVPARFSGSGSGTSYTLTISRMEPEDAASYFCHQWSSYPPTFGSGTKLEIKR
notes: as for B2

ELISA rMET vs parental [3]: 2.7 fold vs parental
ELISA hMET vs parental [4]: 1.3 fold vs parental
Kd [1]: 29 nM
Kd [2]: 0.4 nM
B10: G2cka (humanized P3D12, VH-cdr + VL-abb/sdr) (antibody, V domains shown)
VH: QVQLVQSGAEVKKPGASVKVSCKASGYTFTSYWMHWVKQAPGQGLDWIGYIKPSTDNTEYNQKFKDKATLTADKSTSTAYMELSSLRSEDTAVYYCARSYGNYPLMDYWGQGTTVTVSS
VL: QIVLTQSPATLSLSPGERATLSCRASQSVTSNYLYWYQQKPGSSPRLLIYSTSNLASGVPARFSGSGSGTDYTLTISRLEPEDFASYFCHQWSSYPPTFGSGTKLEIKR
notes: as for B2

ELISA rMET vs parental [3]: 2.7 fold vs parental
ELISA hMET vs parental [4]: 0.9 fold vs parental
B13: G2vka (humanized P3D12, VH-ven + VL-abb/sdr) (antibody, V domains shown)
VH: QVQLVQSGAEVAKPGASVKMSCKASGYTFTSYWMHWVKQAPGQGLDWIGYIKPSTDNTEYNQKFKDKATLTADKSTSTAYMQLSSLRSEDTAVYYCARSYGNYPLMDYWGQGTTVTVSS
VL: QIVLTQSPATLSLSPGERATLSCRASQSVTSNYLYWYQQKPGSSPRLLIYSTSNLASGVPARFSGSGSGTDYTLTISRLEPEDFASYFCHQWSSYPPTFGSGTKLEIKR
notes: as for B2

ELISA rMET vs parental [3]: 1.1 fold vs parental
ELISA hMET vs parental [4]: 0.9 fold vs parental
Kd [1]: 26 nM
Kd [2]: 0.9 nM
B14: G2aka (humanized P3D12, VH-abb/sdr + VL-abb/sdr) (antibody, V domains shown)
VH: QVQLVQSGAEVKKPGASVKVSCKASGYTFTSYWMHWVKQAPGQGLDWMGYIKPSTDNTEYAQKFQGRVTLTADKSTSTAYMELSSLRSEDTAVYYCARSYGNYPLMDYWGQGTTVTVSS
VL: QIVLTQSPATLSLSPGERATLSCRASQSVTSNYLYWYQQKPGSSPRLLIYSTSNLASGVPARFSGSGSGTDYTLTISRLEPEDFASYFCHQWSSYPPTFGSGTKLEIKR
notes: as for B2

ELISA rMET vs parental [3]: 0.7 fold vs parental
ELISA hMET vs parental [4]: 1.3 fold vs parental
Kd [1]: 38 nM
Kd [2]: 0.7 nM
B16: G2akc (humanized P3D12, VH-abb/sdr + VL-cdr) (antibody, V domains shown)
VH: QVQLVQSGAEVKKPGASVKVSCKASGYTFTSYWMHWVKQAPGQGLDWMGYIKPSTDNTEYAQKFQGRVTLTADKSTSTAYMELSSLRSEDTAVYYCARSYGNYPLMDYWGQGTTVTVSS
VL: QIVLTQSPATLSLSPGERATLSCSASSSVTSNYLYWYQQKPGSSPRLLIYSTSNLASGVPARFSGSGSGTSYTLTISRLEPEDFASYFCHQWSSYPPTFGSGTKLEIKR
notes: as for B2
